3 molecules from paper PMC4361584, “Glyceraldehyde 3-Phosphate Dehydrogenase-Telomere Association Correlates with Redox Status in Trypanosoma cruzi” can be followed below.

Data set [1] deals with T1, rTcGAPDH (glyceraldehyde 3-phosphate dehydrogenase) (Trypanosoma cruzi, UniProt P22513 1-359). Kind of data set: EMSA; 50 uM GAPDH; 1x from 5x buffer: 20 mM HEPES pH 6.0, 1 mM EDTA, 10 mM (NH4)2SO4, 1 mM DTT, 0.2% Tween 20, 30 mM KCl; 0.1 ug poly-lysine, 1 ug poly[d(I-C)], 20 ul, on ice 15 min; 6% native gel, 0.25x TBE. As to conditions: protein: recombinant; tags: His-tag; chain copies: 4; label: DIG-11-ddUTP at 3' end; single strand. (A gel shift assay detects complexes by their altered migration in electrophoresis.)
T1 sequence (P22513 whole entry): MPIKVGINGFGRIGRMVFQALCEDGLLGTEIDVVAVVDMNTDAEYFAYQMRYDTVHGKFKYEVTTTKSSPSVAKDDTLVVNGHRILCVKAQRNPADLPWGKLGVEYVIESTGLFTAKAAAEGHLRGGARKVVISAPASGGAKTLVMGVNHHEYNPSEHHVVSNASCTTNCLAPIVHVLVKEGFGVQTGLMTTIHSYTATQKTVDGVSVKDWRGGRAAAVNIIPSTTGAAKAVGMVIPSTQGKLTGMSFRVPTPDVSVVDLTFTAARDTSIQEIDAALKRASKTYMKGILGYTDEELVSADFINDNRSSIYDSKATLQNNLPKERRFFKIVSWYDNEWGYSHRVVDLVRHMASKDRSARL

The target in data set [2] is T1, rTcGAPDH (glyceraldehyde 3-phosphate …). Put plainly: EMSA; supershift with anti-GAPDH serum; 1x from 5x buffer: 20 mM HEPES pH 6.0, 1 mM EDTA, 10 mM (NH4)2SO4, 1 mM DTT, 0.2% Tween 20, 30 mM KCl; 0.1 ug poly-lysine, 1 ug poly[d(I-C)], 20 ul, on ice 15 min; 6% native gel, 0.25x TBE. To be noted: protein: recombinant; tags: His-tag; chain copies: 4; label: DIG-11-ddUTP at 3' end (terminal transferase); single strand.

TTAGGGTTAGGGTTAGGG (ssDNA) [ss (TTAGGG)3]: the binding result in data set [1] is given as “binds”.
Take TTAGGGTTAGGGTTAGGGTTAGGGTTAGGGTTAGGG (ssDNA) [ss (TTAGGG)6]: the binding result in data set [2] was “binds”.
As for TTAGGG (ssDNA) [ss (TTAGGG)1], the binding result in data set [1] was “binds”.
